# Data: the DeepSol protein solubility set
# Experiment: soluble on expression in E. coli; label from the status in PepcDB or PDB records
row,Sequence,soluble on expression in E. coli
1,GPGSMTKAASLKKGSGDKRAREASLQEATARKVKVETAAMLPKASHDSQAHPNLFSWLLNTSRGEFFRKYFERKHLVASHGSGEYFASGLPGVVPPVNWSTERMLEHVKTHPSRYGADLDIVKFDPKLKRRVSYRTKGLVDAAELEACMKDGWSVRFLRPNEFIESNSAFIGCIEKEFNCYCGANSYWTPANSQGFAPHYDDVDVFFLQLEGEKLWCLYDPPEDVDVLARHSSEDYAPERFPTPKHTITLKAGDVLYMPRGTVHQGKTTLKTHSLHITFSANQMNSWADFMSRAAQYTVETLAANKLEWRRALPRDMPQVMGEVNNPVFRDTHGLPALSANQQDHRANLQTKVREMVAELTLLLTDEVNMDVCADVYGKDTIQKLQPPSRTYSGAAPASRKLSHASRVRLISRNCMRLLLNVPGEARVYHIGQNSTVCLAGELGELRFEADFAPAIATLLSSYPKTMPVSALPFPGFDNSDDVAENQLLLVETLRDAGLLHVGSSAKGNAPS,soluble
2,GPGSMTQNIIRRIFGNRELPENLSGSEYERYMQENFPKWIDEFEKGGFLEATKLPAIKSERDFLSKLIEHKDEIMVVKYWKHGCIPCLSLAEMYKQVSEQCKKENRRIAWYSVNTKDVSARSLVDYQLVNGTPTVQTFSRMKQVGKEIRAISAEELMRELSLREAALNTES,soluble
3,GPGSMTTSDELPANGELDQPERIPDVVECERLKKAGNDLFAADRVAEALELYREAIKHAPLKPVKKPTQHRQDEVPPCGSEGTAQNSIGESSVVSEKSSAPGTEKSSKVGADDAAQDGDDDGIDYTLTSQVYCNAGLCLSKQGMPEDAITHLSEAIRHNKQYSKAYYRRAECYYVLGKWSNAYGDYEEYEKLGGTLDAGSQDRKRQAKAKVDEEMQKMLGELKNMGNRFLNYFGLSTDNFKFDKDPNTGGYSVRFEQ,not soluble
4,GPGSMTVVTTESGLKYEDLTEGSGAEARAGQTVSVHYTGWLTDGQKFDSSKDRNDPFAFVLGGGMVIKGWDEGVQGMKVGGVRRLTIPPQLGYGARGAGGVIPPNATLVFEVELLDV,soluble
5,GPGSMYNSGGEVRSYAQRVFALYSRENVLSVSRFCLAWYVLWGKQPNPTVTELLFGRCDASGDGNVTKYPKEICEEGYAAPLRGSSSDYCKRPSGVNTVAVGASVPPNATLQRRISEEEFVRFAVAYYDSMGNDASDLSDVPGAANPFHAVPRVAHWAHFIALAGDKGYVTLQDILETENVAWLRPPEYEDGDVNPKGVRGGGRAALLSHAFAIADSNKDGKVVFGDVENYMRPLSS,not soluble
6,GPGSMYVLYCCTMQGYSQLSGSSSDENIVHPLSSDGNTVTISPTYTLRMHFLPQHQVAKGAEKNNQIELSVAPTDALIINFPEGTEGSETEVMEQLIGTGRWQWVVPMRPFDGYDSTRSYRLKARRFPVAAGDDSNELTPPTIVHVPNISSIIEAGMRVSNRSQSGLHRSRGGVVCFVVGADPSVVRVPEGKKLLEQLFSEVGRSTISTATLGLRQLHNANWALFISPCRTNKLFAWKERLPSSSVSSGSLWWLCAAADVLLEINTAAEWVTAHFD,not soluble
7,GPGSPSEENEGRQFIVCYYLADDTVSVFELQVPNSGHVGGKIFARRAVENLQDPTLLKVGNTIRLDGVDYLLKEMDERTKRYLEMGMPNMDESYFRTQEILGIAASYLQQQFSRITDAFRHYASSSTQGLTRENVREMLSDAGVHATDAELTNVMERADGDKDGWVSLADFTEQFMQQLFISNFKPRESQKRWGDTRNGVVVQRG,soluble
8,GPHMASMLEAKFEEASLFKRIIDGFKDCVQLVNFQCKEDGIIAQAVDDSRVLLVSLEIGVEAFQEYRCDHPVTLGMDLTSLSKILRCGNNTDTLTLIADNTPDSIILLFEDTKKDRIAEYSLKLMDIDADFLKIEELQYDSTLSLPSSEFSKIVRDLSQLSDSINIMITKETIKFVADGDIGSGSVIIKPFVDMEHPETSIKLEMDQPVDLTFGAKYLLDIIKGSSLSDRVGIRLSSEAPALFQFDLKSGFLQFFLAPKFNDEGSNSQSNGSGALEAKFEEASLFKRIIDGFKDCVQLVNFQCKEDGIIAQAVDDSRVLLVSLEIGVEAFQEYRCDHPVTLGMDLTSLSKILRCGNNTDTLTLIADNTPDSIILLFEDTKKDRIAEYSLKLMDIDADFLKIEELQYDSTLSLPSSEFSKIVRDLSQLSDSINIMITKETIKFVADGDIGSGSVIIKPFVDMEHPETSIKLEMDQPVDLTFGAKYLLDIIKGSSLSDRVGIRLSSEAPALFQFDLKSGFLQFFLAPKFNDEGSNSQASNSGALEAKFEEASLFKRIIDGFKDCVQLVNFQCKEDGIIAQAVDDSRVLLVSLEIGVEAFQEYRCDHPVTLGMDLTSLSKILRCGNNTDTLTLIADNTPDSIILLFEDTKKDRIAEYSLKLMDIDADFLKIEELQYDSTLSLPSSEFSKIVRDLSQLSDSINIMITKETIKFVADGDIGSGSVIIKPFVDMEHPETSIKLEMDQPVDLTFGAKYLLDIIKGSSLSDRVGIRLSSEAPALFQFDLKSGFLQFFLAPKFNDEE,soluble
9,GPLGSGDVQVTEDAVRRYLTRKPMTTKDLLKKFQTKKTGLSSEQTVNVLAQILKRLNPERKMINDKMHFSLKE,soluble
10,GPLGSHENCQSPSMKRSRCTNYSFRTLTLSTAEYTKVVEFLAREAKVPRYTWVPTQVVSHILPTEGLERFLTAIKAGHDSVLFNANGIYTMGDMIREFEKHNDIFERIGIDSSKLSKYYEAFLSFYRIQEAMKLPK,soluble
11,GPLGSMKLRVENPKKAQKHFVQNLNNVVFTNKELEDIYNLSNKEETKEVLKLFKLKVNQFYRHAFGIVNDYNGLLEYKEIFNMMFLKLSVVFDTQRKEANNVEQIKRNIAILDEIMAKADNDLSYFISQNKNFQELWDKAVKLTKEMKIKLKGQKLDLRDGEVAINKVRELFGSDKNVKELWWFRSLLVKGVYLIKRYYEGDIELATTSDFAKAVFE,soluble
12,GPLGSMKPINIQDQFLNQIRKENTYVTVFLLNGFQLRGQVKGFDNFTVLLESEGKQQLIYKHAISTFAPQKNVQLELE,soluble
13,GPLGSPQFMNPAAEAEFNILLATDSYKVTHYKQYPPNTSKVYSYFECREKKTENSKLRKVKYEETVFYGLQYILNKYLKGKVVTKEKIQEAKDVYKEHFQDDVFNEKGWNYILEKYDGHLPIEIKAVPEGFVIPRGNVLFTVENTDPECYWLTNWIETILVQSWYPITVATNSREQKKILAKYLLETSGNLDGLEYKLHDFGYRGVSSQETAGIGASAHLVNFKGTDTVAGLALIKKYYGTKDPVPGYSVPAAEHSTITAWGKDHEKDAFEHIVTQFSSVPVSVVSDSYDIYNACEKIWGEDLRHLIVSRSTQAPLIIRPDSGNPLDTVLKVLEILGKKFPVTENSKGYKLLPPYLRVIQGDGVDINTLQEIVEGMKQKMWSIENIAFGSGGGLLQKLTRDLLNCSFKCSYVVTNGLGINVFKDPVADPNKRSKKGRLSLHRTPAGNFVTLEEGKGDLEEYGQDLLHTVFKNGKVTKSYSFDEIRKNAQLNIELEAAHH,soluble
